The results in this text go back to the supplement of paper PMC10567573.

The chains are these.
B1: NETO1 (parent)
chain: KTSLLDQLTNTSGTVIGVTSCIVI
B2: STK38L (parent)
chain: FLPGGDMMTLLMKKDTLTEEETQF
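Also: lentivirally expressed fusions sorted by FACS into six bins by GFP to DsRed ratio, PSI derived from sequencing read proportions per bin multiplied by bin number.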

Variants of B1 are the subject of one data set. The data set can be described thus: protein stability index of a GFP-peptide fusion (GPS, HEK-293T) (PSI 1-6); higher = more stable. The conditions noted are these: c terminus: a fixed tail appended.
In the case of KTSLLDQLTNTSGTVIGVTSCITI, the protein stability index amounted to 2.85.
As for KTSLLDQLTNTSGTVIGVTSCILI, the protein stability index was 3.18.
Still for that read-out and setting: under KTSLLDQLTNTSGTVIGVTSCIEI stands 2.98; under KTSLLDQLTNTSGTVIGVTSCIPI, 1.65; under KTSLLDQLTNTSGTVIGVTSCIYI, 2.66.
For KTSLLDQLTNTSGTVIGVTSCIHI, the protein stability index was 1.97.
KTSLLDQLTNTSGTVIGVTSCIII: the protein stability index is 2.81.
Still for that read-out and setting: under KTSLLDQLTNTSGTVIGVTSCIGI stands 1.79; under KTSLLDQLTNTSGTVIGVTSCIDI, 1.95; under KTSLLDQLTNTSGTVIGVTSCAVI, 2.12.
As for KTSLLDQLTNTSGTVIGVTSCQVI, the protein stability index was 2.15.
On the same count and under the same terms, under KTSLLDQLTNTSGTVIGVTSCPVI stands 2.37; under KTSLLDQLTNTSGTVIGVTSCKVI, 2.35; under KTSLLDQLTNTSGTVIGVTSCLVI, 2.08.
Turning to KTSLLDQLTNTSGTVIGVTSCFVI, the protein stability index came to 2.56.
As for KTSLLDQLTNTSGTVIGVTSCDVI, the protein stability index amounted to 2.39.
With KTSLLDQLTNTSGTVIGVTSCWVI, the protein stability index was 3.04.
In the case of KTSLLDQLTNTSGTVIGVTSCHVI, the protein stability index was determined as 2.1.
For KTSLLDQLTNTSGTVIGVTSCNVI, the protein stability index is 1.72.
As for KTSLLDQLTNTSGTVIGVTSCSVI, the protein stability index is 1.45.
On to KTSLLDQLTNTSGTVIGVTSCRVI, for which the protein stability index was found to be 1.87.
Same read-out and setting: the same measure for KTSLLDQLTNTSGTVIGVTSCTVI: 3.07.
For the variant KTSLLDQLTNTSGTVIGVTSCMVI, the protein stability index stood at 3.35.
Consider KTSLLDQLTNTSGTVIGVTSCCVI, for which the protein stability index stood at 3.54.
For the variant KTSLLDQLTNTSGTVIGVTSCEVI, the protein stability index was 2.32.
On the same count and under the same terms, the same measure for KTSLLDQLTNTSGTVIGVTSCVVI: 3.37.
Regarding KTSLLDQLTNTSGTVIGVTSCGVI, the protein stability index came to 2.36.
As for KTSLLDQLTNTSGTVIGVTSCYVI, the protein stability index was found to be 2.81.
As for KTSLLDQLTNTSGTVIWVTSCIVI, the protein stability index stood at 2.9.
KTSLLDQLTNTSGTVIRVTSCIVI: the protein stability index came out at 2.88.
On to KTSLLDQLTNTSGTVIDVTSCIVI, for which the protein stability index amounted to 3.37.
Consider KTSLLDQLTNTSGTVISVTSCIVI, for which the protein stability index is 3.25.
Regarding KTSLLDQLTNTSGTVIQVTSCIVI, the protein stability index is 2.36.
Consider KTSLLDQLTNTSGTVIYVTSCIVI, for which the protein stability index came to 1.98.
As for KTSLLDQLTNTSGTVIPVTSCIVI, the protein stability index was determined as 3.45.
Regarding KTSLLDQLTNTSGTVIHVTSCIVI, the protein stability index is 3.23.
In the case of KTSLLDQLTNTSGTVIFVTSCIVI, the protein stability index is 2.72.
On the same count and under the same terms, under KTSLLDQLTNTSGTVINVTSCIVI stands 3.28; under KTSLLDQLTNTSGTVILVTSCIVI, 3.83; under KTSLLDQLTNTSGTVIAVTSCIVI, 2.71.
KTSLLDQLTNTSGTVICVTSCIVI: the protein stability index is 3.42.
On to KTSLLDQLTNTSGTVIMVTSCIVI, for which the protein stability index was found to be 2.55.
With KTSLLDQLTNTSGTVIEVTSCIVI, the protein stability index was found to be 2.69.
On the same count and under the same terms, the same measure for KTSLLDQLTNTSGTVIIVTSCIVI: 3.43; for KTSLLDQLTNTSGTVIVVTSCIVI: 2.91.
With KTSLLDQLTNTSGTVITVTSCIVI, the protein stability index was 3.32.
Regarding KTSLLDQLTNTSGTVIKVTSCIVI, the protein stability index was found to be 2.64.
Take KTSLLDQLTNTSGTVIGVTLCIVI: the protein stability index is 2.79.
Consider KTSLLDQLTNTSGTVIGVTPCIVI, for which the protein stability index turned out to be 2.98.
For the variant KTSLLDQLTNTSGTVIGVTGCIVI, the protein stability index was determined as 2.14.
KTSLLDQLTNTSGTVIGVTACIVI: the protein stability index came out at 3.66.
Still for that read-out and setting: the same measure for KTSLLDQLTNTSGTVIGVTMCIVI: 2.89.
Turning to KTSLLDQLTNTSGTVIGVTCCIVI, the protein stability index was determined as 2.91.
For the variant KTSLLDQLTNTSGTVIGVTICIVI, the protein stability index was 3.08.
In the case of KTSLLDQLTNTSGTVIGVTFCIVI, the protein stability index was found to be 2.87.
KTSLLDQLTNTSGTVIGVTKCIVI: the protein stability index was 3.19.
On the same count and under the same terms, under KTSLLDQLTNTSGTVIGVTRCIVI stands 4.13.
As to KTSLLDQLTNTSGTVIGVTDCIVI, the protein stability index was found to be 2.83.
KTSLLDQLTNTSGTVIGVTNCIVI: the protein stability index was determined as 3.04.
Same read-out and setting: under KTSLLDQLTNTSGTVIGVTTCIVI stands 2.37; under KTSLLDQLTNTSGTVIGVTYCIVI, 2.8; under KTSLLDQLTNTSGTVIGVTWCIVI, 3.86.
On to KTSLLDQLTNTSGTVIGVTHCIVI, for which the protein stability index stood at 2.97.
On the same count and under the same terms, under KTSLLDQLTNTSGTVIGVTECIVI stands 4.15.
Still for that read-out and setting: the same measure for KTSLLDQLTNTSGTVIGVTVCIVI: 2.44.
The same measure, in the same setting: under KTSLLDQLTNTSGTVIGVTQCIVI stands 2.53.

Another data set covers variants of B2. The description is as above. The note with it: c terminus: a fixed tail appended.
For the variant FLPGGDMMTLLFKKDTLTEEETQF, the protein stability index was determined as 2.54.
On the same count and under the same terms, the same measure for FLPGGDMMTLLPKKDTLTEEETQF: 3.5; for FLPGGDMMTLLNKKDTLTEEETQF: 3.86; for FLPGGDMMTLLMFKDTLTEEETQF: 2.21.
Take FLPGGDMMTLLMKKDTLTEEETQQ: the protein stability index came to 2.58.
For the variant FLPGGDMMTLLMKKDTLLEEETQF, the protein stability index came to 2.15.
Same read-out and setting: under FLPGGDMMTLLMKKDTLTEEETVF stands 2.25.
With FLPGGDMMLLLMKKDTLTEEETQF, the protein stability index worked out at 2.32.
In the case of FLPGGDMMRLLMKKDTLTEEETQF, the protein stability index was found to be 1.69.
Regarding FLPGGDMMTLLMKKDTLTEEFTQF, the protein stability index worked out at 1.2.
Same read-out and setting: the same measure for FLPAGDMMTLLMKKDTLTEEETQF: 2.78.
FLPDGDMMTLLMKKDTLTEEETQF: the protein stability index is 3.84.
Take FLPGQDMMTLLMKKDTLTEEETQF: the protein stability index was determined as 2.72.
On the same count and under the same terms, the same measure for FLPGGDMMTLLMKKDLLTEEETQF: 1.74.
Regarding FLPGGDMMTLLMKKDHLTEEETQF, the protein stability index worked out at 2.48.
Turning to FLPGGDMMTLLMKKDWLTEEETQF, the protein stability index came out at 1.96.
Regarding FLPGGDMMTLLMKKDTLTSEETQF, the protein stability index was 2.61.
Consider FLCGGDMMTLLMKKDTLTEEETQF, for which the protein stability index is 2.17.
Take ALPGGDMMTLLMKKDTLTEEETQF: the protein stability index came to 4.91.
Turning to GLPGGDMMTLLMKKDTLTEEETQF, the protein stability index was 4.51.
For FLPGGDMMTLLMKKITLTEEETQF, the protein stability index stood at 1.75.
As to FLPGGDMMTLLMKKFTLTEEETQF, the protein stability index is 1.94.
With FNPGGDMMTLLMKKDTLTEEETQF, the protein stability index is 3.32.
FLPGGDMMTVLMKKDTLTEEETQF: the protein stability index is 2.98.
Consider FLPGGDMMTTLMKKDTLTEEETQF, for which the protein stability index came to 3.78.
The same measure, in the same setting: the same measure for FLPGGDMMTDLMKKDTLTEEETQF: 4.67; for FLPGGEMMTLLMKKDTLTEEETQF: 2.02.
Consider FLPGGDMKTLLMKKDTLTEEETQF, for which the protein stability index stood at 3.66.
